# According to patent publication US20220204603A1 (PHARMABCINE, published 2022):
# T1: mouse Ang2 (construct not stated) (mouse, UniProt O35608 19-496, limits assumed)
# T1 construct: also called mAng2
# T1 sequence (looked up): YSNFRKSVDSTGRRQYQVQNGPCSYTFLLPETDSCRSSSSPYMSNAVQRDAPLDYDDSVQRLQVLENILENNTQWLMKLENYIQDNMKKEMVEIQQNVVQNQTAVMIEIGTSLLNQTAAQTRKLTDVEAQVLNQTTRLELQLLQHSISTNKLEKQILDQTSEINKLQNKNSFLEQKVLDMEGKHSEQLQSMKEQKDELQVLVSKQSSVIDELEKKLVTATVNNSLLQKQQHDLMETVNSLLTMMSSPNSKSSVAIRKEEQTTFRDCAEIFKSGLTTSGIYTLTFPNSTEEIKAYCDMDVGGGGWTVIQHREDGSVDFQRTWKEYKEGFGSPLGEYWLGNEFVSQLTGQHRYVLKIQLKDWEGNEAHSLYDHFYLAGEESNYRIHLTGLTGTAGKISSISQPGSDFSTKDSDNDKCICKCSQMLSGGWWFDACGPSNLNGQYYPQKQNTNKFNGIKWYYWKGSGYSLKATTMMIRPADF
# T2: human Ang2 (construct not stated) (human, UniProt O15123 19-496, limits assumed)
# T2 construct: also called hAng2
# T2 sequence (looked up): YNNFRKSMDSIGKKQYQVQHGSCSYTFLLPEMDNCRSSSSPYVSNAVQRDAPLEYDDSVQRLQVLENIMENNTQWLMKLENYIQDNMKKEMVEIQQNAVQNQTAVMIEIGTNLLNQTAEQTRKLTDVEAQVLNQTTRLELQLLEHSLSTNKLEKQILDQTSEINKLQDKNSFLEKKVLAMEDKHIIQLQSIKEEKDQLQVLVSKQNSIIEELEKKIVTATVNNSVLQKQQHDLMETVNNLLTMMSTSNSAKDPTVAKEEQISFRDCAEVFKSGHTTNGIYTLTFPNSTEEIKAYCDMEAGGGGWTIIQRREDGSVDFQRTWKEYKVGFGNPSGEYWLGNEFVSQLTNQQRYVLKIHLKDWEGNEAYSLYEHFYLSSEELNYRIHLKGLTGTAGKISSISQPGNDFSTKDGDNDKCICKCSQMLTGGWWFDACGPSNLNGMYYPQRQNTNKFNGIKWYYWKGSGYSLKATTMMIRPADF
# T3: biotinylated human Ang2 protein (human, UniProt O15123 19-496, limits assumed, biotinylated (sites not given))
# T3 construct: also called hAng2
# T3 sequence (looked up): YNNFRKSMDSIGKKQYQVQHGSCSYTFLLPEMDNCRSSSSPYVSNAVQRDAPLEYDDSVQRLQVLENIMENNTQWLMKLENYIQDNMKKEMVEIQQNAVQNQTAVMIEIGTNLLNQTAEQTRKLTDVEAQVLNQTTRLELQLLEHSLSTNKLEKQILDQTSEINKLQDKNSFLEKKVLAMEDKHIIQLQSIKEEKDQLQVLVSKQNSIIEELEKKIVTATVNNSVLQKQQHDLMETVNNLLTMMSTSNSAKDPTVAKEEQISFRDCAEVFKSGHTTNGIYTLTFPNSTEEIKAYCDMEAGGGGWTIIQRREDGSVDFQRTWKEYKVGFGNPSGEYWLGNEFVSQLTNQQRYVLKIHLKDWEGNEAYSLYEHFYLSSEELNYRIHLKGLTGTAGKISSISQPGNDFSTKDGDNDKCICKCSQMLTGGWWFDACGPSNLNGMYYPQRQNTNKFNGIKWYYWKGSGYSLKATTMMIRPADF
# B1: No. 41 anti-Ang2 antibody (IgG) (antibody, V domains shown)
# VH: QVQLVESGGGLVQPGGSLRLSCEASGFAFGRYEMNWVRQAPGKGLEWIAYIDTGGGAKVYADSVKGRFTISRDDSKNSLYLQMNSLRAEDTAVYYCTTEGLMNGLHFDMWGQGTMITVSS
# VL: DIQMTQSPSTLSASVGDRVAITCRASQAISTWLAWYQQKPGKAPKLLIYTASTLESGVPSRFSGSGSGTDFTLTINSLQPDDFATYYCQQLNSYPYTFGGGTKVEIKR
# notes: IgG form: VH cloned into Invivogen pfusess-hchg1, VL into Invivogen pfuse2ss-hclk; also called 2B2
# B2: No. 8 anti-Ang2 antibody (IgG) (antibody, V domains shown)
# VH: QVQLVESGGGLVKPGGSLRLSCAASGFTFSSYSMNWVRQAPGKGLEWVSSISASDGATYYADSVRGRFTISRDNSRSTLYLQMNSLRAEDTAVYYCAKILAGYSGPMGGMDVWGQGTTVTVSS
# VL: DIQMTQSPSSLSASVGDRVTITCRASRDISNYLAWYQQKPGKAPKSLIYGASNLQSGVSSQFSGSGSGTDFTLTINSLQPEDSATYYCQQYYSYPLTFGGGTKVDIKR
# notes: IgG form: VH cloned into Invivogen pfusess-hchg1, VL into Invivogen pfuse2ss-hclk; also called 3A10
# B3: No. 46 anti-Ang2 antibody (IgG) (antibody, V domains shown)
# VH: QVQLVESGGGLVQPGRSLRLSCAASGFTFDDCAMHWVRQAPGKGLEWVSGISGNSKNVAYADSVKGRFSISRDDAKNSLYLQMNSLRAEDTAVYYCARDPAYSQFDYWGQGTLITVSS
# VL: QSALTQPPSLSATPGQRVTISCSGSSSNVGGYPVNWYQQVPGAAPKLLMYTDYKRPSGVPDRFFGSKSGTSASLAISGLQSEDEADYYCATWDDNLNGYVFGTGTKVTVLG
# notes: IgG form: VH cloned into Invivogen pfusess-hchg1, VL into Invivogen pfuse2ss-hclk; also called 3C6
# B4: No. 3 anti-Ang2 antibody (IgG) (antibody, V domains shown)
# VH: QMQLVQSGGGLVQPGRSLKLSCAASGFSFDDYAMHWVRQAPGKGLEWVATIKDDGSQTYYVDSVKGRFTISRDNAKSSLFLQMNSLRAEDTAVYYCTTEGLMNGLHFDMWGQGTMVTVSS
# VL: LVLTQPPSVSGAPGQGVTISCTGSSSNIGAGYDVHWYQQFPGTAPKLLISGNNNRPSGLPDRFSGSKSGTSASLAITGLQAEDEADYYCQSYDSRLGVVFGGGTKLTVLG
# notes: IgG form: VH cloned into Invivogen pfusess-hchg1 (heavy chain constant region), VL into Invivogen pfuse2ss-hclk (light chain constant region); Expressed in Expi293F, purified on Protein A; also called 1D10
# B5: No. 4 anti-Ang2 antibody (IgG) (antibody, V domains shown)
# VH: QVQLVESGAEVKRPGESLRISCKTSGYSFTSYWIHWVRQMPGKELEWMGSIYPGNSDTRYSPSFQGHVTISADSSSSTAYLQWSSLKASDTAMYYCTTEGLMNGLHFDMWGQGTMVTVSS
# VL: DIVMTQTPLSLPVTPGEPASISCRSSQSLLHSLGDNYLDWYLQKPGQSPQLLIYLGSKRAAGVPDRFSGSGSGTDFTLKISRVEAEDVGVYYCMQSLQTPPYTFGQGTKLEIKR
# notes: IgG form: VH cloned into Invivogen pfusess-hchg1, VL into Invivogen pfuse2ss-hclk; also called 2D8
# Columns and labels:
# [1] = target: T1, mouse Ang2 (construct not stated); test: SPR Biacore T200, antibody captured on protein A chip, Ang2 as analyte, 1:1 model
# Procedure: (§1) To analyze the binding affinity of the selected anti-Ang2 antibodies, affinity analysis for human Ang2 and mouse Ang2 was performed using BIACORE® T200 (GE Healthcare). A protein A sensor chip was used, and an experiment was conducted in accordance with the manufacturer's manual. Detailed analysis conditions are as follows. 2000 response units (RU) of protein A were immobilized, 25 RU of anti-Ang2 antibody candidates were used for binding, and various concentrations of human Ang2 and mouse Ang2 were allowed to bind. The starting concentrations for analysis are 100 nM and 150 nM, respectively. The analysis proceeded at a flow rate of 30 μl/min, the binding and dissociation time of human Ang2 was measured as 300 seconds and 2000 seconds, respectively, and the binding and dissociation time of mouse Ang2 was analyzed as 300 seconds and 1000 seconds, respectively. Analysis was performed using a 1:1 binding model as an analytical model.
# [2] = target: T2, human Ang2 (construct not stated); test: as above
# Procedure: as §1
# [3] = target: T2, human Ang2 (construct not stated); test: cell-based or functional assay
# [4] = target: T3, biotinylated human Ang2 protein; test: competition ELISA: antibody preincubated with biotinylated hAng2, binding to coated integrin α3/β1
# Procedure: (§2) 1 μg/ml (100 μl per well) of a human Ti32-Fc (R&D Systems, 313-TI) or mouse Tie2-Fc (R&D Systems, 762-T2-100) solution, an integrin α3/β1 solution (R&D systems, 2840-A3-050), or an integrin α5/β1 solution (R&D systems, 3230-A5-050) was added to a 96-well immunoplate (Nunc, US) and then allowed to stand overnight at 4° C. for adsorption. The next day, the plate was washed four times with PBS containing 0.05% Tween-20 (hereinafter, referred to as PBST), and 200 μl of a 2% BSA/PBST solution was added to each well and then allowed to stand at room temperature for 1 hour to perform blocking. Anti-Ang2 candidate antibodies were serially diluted 4-fold at a maximum of 1000 nM, and biotinylated human Ang2 protein was made to a final concentration of 100 ng/mL or 625 ng/mL, followed by previous binding at room temperature for 1 hour. […] The plate was washed three times with PBST, 100 μl of HRP-conjugated streptavidin (R&D Systems, DY998) diluted to 1:200 was added to allow a reaction to occur at room temperature for 1 hour, thereby inducing binding, and the plate was washed four times with PBST, followed by color development using 100 μl of a TMB substrate reagent. The color development reaction was stopped by adding 50 μl of 2N H₂SO₄, and a Sunrise microplate reader (TECAN, CH) was used to measure specific absorbance OD₄₅₀ (FIGS. 4 and 5).
# [5] = target: T1, mouse Ang2 (construct not stated); test: competition ELISA: antibody preincubated with mAng2, binding to coated mouse Tie2-Fc
# [6] = target: T3, biotinylated human Ang2 protein; test: competition ELISA: antibody preincubated with biotinylated hAng2, binding to coated integrin α5/β1
# Procedure: as §2
Binder,Kd [1],koff [1],kon [1],Kd [2],koff [2],kon [2],IC50 of Tie2 phosphorylation (Phospho-Tie2 ELISA) in human Tie2-overexpressing cells treated with human Ang2 (5 µg/ml) preincubated with antibody [3],IC50 [4],IC50 [5],IC50 [6]
B1,0.328 nM,9.47e-05 s⁻¹,289000 M⁻¹ s⁻¹,0.243 nM,7.77e-05 s⁻¹,320000 M⁻¹ s⁻¹,11 nM,2.43 nM,3.98 nM,1.49 nM
B2,0.463 nM,6.69e-05 s⁻¹,144000 M⁻¹ s⁻¹,0.163 nM,4.37e-05 s⁻¹,268000 M⁻¹ s⁻¹,20.2 nM,4.68 nM,4.83 nM,1.89 nM
B3,0.193 nM,8.94e-05 s⁻¹,465000 M⁻¹ s⁻¹,0.314 nM,8.62e-05 s⁻¹,274000 M⁻¹ s⁻¹,10.1 nM,4.39 nM,5.25 nM,1.9 nM
B4,0.538 nM,8.53e-05 s⁻¹,158000 M⁻¹ s⁻¹,0.127 nM,4.22e-05 s⁻¹,334000 M⁻¹ s⁻¹,8.53 nM,2.5 nM,5.02 nM,1.53 nM
B5,0.45 nM,7.05e-05 s⁻¹,157000 M⁻¹ s⁻¹,0.217 nM,5.93e-05 s⁻¹,273000 M⁻¹ s⁻¹,12.3 nM,2.42 nM,4.54 nM,1.57 nM
